Reference: publication PMC9328677

Molecular target: T1, APLF acidic domain (APLFAD) WT (Homo sapiens, UniProt Q8IW19 450-511)
T1 sequence: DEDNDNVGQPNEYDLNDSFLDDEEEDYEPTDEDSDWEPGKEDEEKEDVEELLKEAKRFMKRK
Assay: EMSA (native PAGE, cross-linked); APLFAD alone, no histones; Native PAGE EMSA with cross-linking; EMSA and NAQ buffer, salt and temperature not in material (general assay buffer 25 mM NaPi pH 7.0, 300 mM NaCl)
Conditions: protein: recombinant; tags: TAMRA-labelled; His-GST or His-SUMO fusion for expression (TEV cleaved; SUMO may be retained); chain copies: 2; blunt

B1: 49-bp DNA, centre of 601 (dsDNA)
DNA 1: GCACCGCTTAAACGCACGTACGCGCTGTCCCCCGCGTTTTAACCGCCAA
DNA 2: TTGGCGGTTAAAACGCGGGGGACAGCGCGTACGTGCGTTTAAGCGGTGC
B1: no binding.
